Target: the molecule itself
Test: cryo-EM structure

B1: enolase, native, Francisella novicida (enzyme)
chain: MSSQIKQVFARQILDSRGNPTVEVDVVLESGAFGRAAVPSGASTGIREALELRDGNKALFLGKSVYKAVENVNTKIAQAVKGLDALDQRLIDKTMIELDGSENKKNLGANAILGVSLATARAAASHLRKPFYRYLMDVKEYLMPVPMMNVINGGSHADNNVDMQEFMIVPAGFDTFSEALRCGTEVFHTLKKVLIADGYSVAGVGDEGGYAPDLPSNEAAIEAILKAVKEAGYEPGKHVFIALDPASSEFYKDGKYELKSENKSLTSEEMIDYYAAWVEKYPIVSIEDGLAEEDWAGWKLLTEKLGNKVQLVGDDLFVTNPSILAKGIEKGIANSILIKLNQIGTLTETFEAMAMAGQAGYTCVVSHRSGETSDTIIADLAVATCSGQIKTGSLSRSDRIAKYNQLLRIEEELGENAIYPGIKAFVFNSDEEVEEDVQEIIVEDSEAEKVVVQVEE
stoichiometry N: 2

From publication PMC11908141 (bioRxiv, 2025)
